The record followed here is PMC6033852.

Experiment [1] concerns the target C-terminal domains of the flavodiiron protein CD1623 from Clostridium difficile 630 (FDP_F_Cter), residues 401-843 (Clostridium difficile 630). Nature of the experiment: SEC; each protein loaded separately at room temperature on a 25 mL Superdex S-200 10/300 GL column; 20 mM Tris-HCl pH 7.5, 18% glycerol, 150 mM NaCl; calibrated with mass standards; data not shown. In general terms: SEC sorts molecules by how far they enter the pores of the column.

Experiment [2] addresses Class F flavodiiron protein CD1623 from Clostridium difficile 630 (FDP_F) (Clostridium difficile 630). Described as above.

What is called stoichiometry N is a count of units in the complex or per binding partner. Take “C-terminal domains of the flavodiiron protein CD1623 from Clostridium difficile 630 (FDP_F_Cter), residues 401-843 (domain or fragment)”: the stoichiometry N in experiment [1] stood at 2.
Regarding “Class F flavodiiron protein CD1623 from Clostridium difficile 630 (FDP_F) (enzyme)”, in experiment [2], the stoichiometry N was 2.
